Each block holds one substance with its values, some of them ahead of it.
Experiments:
[1] = molecular target: recombinant UBE3A protein (Homo sapiens (Human)) (UniProt Q05086); assay: Simoa; capture GTX; SBG 150 pm; UBE3A 4.00 ng/ml
[2] = molecular target: recombinant UBE3A protein (Homo sapiens (Human)) (UniProt Q05086); assay: Simoa; capture GTX; SBG 150 pm; UBE3A 0.800 ng/ml
[3] = molecular target: recombinant UBE3A protein (Homo sapiens (Human)) (UniProt Q05086); assay: Simoa; capture GTX; SBG 75 pm; UBE3A 0.0320 ng/ml
[4] = molecular target: recombinant UBE3A protein (Homo sapiens (Human)) (UniProt Q05086); assay: Simoa; capture GTX; SBG 100 pm; UBE3A 0.0320 ng/ml
[5] = molecular target: recombinant UBE3A protein (Homo sapiens (Human)) (UniProt Q05086); assay: Simoa; capture GTX; 3E5 0.4 ug/ml; UBE3A 4.00 ng/ml
[6] = molecular target: recombinant UBE3A protein (Homo sapiens (Human)) (UniProt Q05086); assay: Simoa; capture GTX; 3E5 0.1 ug/ml; UBE3A 0.800 ng/ml
[7] = molecular target: recombinant UBE3A protein (Homo sapiens (Human)) (UniProt Q05086); assay: Simoa; capture GTX; 3E5 0.1 ug/ml; UBE3A 0.0320 ng/ml
[8] = molecular target: recombinant UBE3A protein (Homo sapiens (Human)) (UniProt Q05086); assay: Simoa head-to-head, Table 11; capture GTX; UBE3A 500 ng/ml
[9] = molecular target: recombinant UBE3A protein (Homo sapiens (Human)) (UniProt Q05086); assay: Simoa head-to-head, Table 11; capture GTX; UBE3A 0.80 ng/ml
[10] = molecular target: recombinant UBE3A protein (Homo sapiens (Human)) (UniProt Q05086); assay: 3-step Simoa, 120 min bead step; capture GTX; UBE3A 0.0320 ng/ml
[11] = molecular target: recombinant UBE3A protein (Homo sapiens (Human)) (UniProt Q05086); assay: Simoa; capture GTX + helper beads; 3E5 0.1 ug/ml; UBE3A 20.0 ng/ml
[12] = molecular target: recombinant UBE3A protein (Homo sapiens (Human)) (UniProt Q05086); assay: Simoa; capture GTX + helper beads; 3E5 0.1 ug/ml; UBE3A 0.800 ng/ml
[13] = molecular target: recombinant UBE3A protein (Homo sapiens (Human)) (UniProt Q05086); assay: Simoa; capture GTX + helper beads; 3E5 0.2 ug/ml; UBE3A 0.160 ng/ml
[14] = molecular target: recombinant UBE3A protein (Homo sapiens (Human)) (UniProt Q05086); assay: Simoa; capture GTX, no helper beads; 3E5 0.1 ug/ml; UBE3A 20.0 ng/ml
[15] = molecular target: recombinant UBE3A protein (Homo sapiens (Human)) (UniProt Q05086); assay: Simoa; capture GTX + helper beads; 3E5 0.1 ug/ml; UBE3A 0.00128 ng/ml
[16] = molecular target: recombinant UBE3A protein (Homo sapiens (Human)) (UniProt Q05086); assay: Simoa; capture GTX, no helper beads; 3E5 0.1 ug/ml; UBE3A 0.0320 ng/ml
[17] = molecular target: recombinant UBE3A protein (Homo sapiens (Human)) (UniProt Q05086); assay: Simoa; capture GTX, no helper beads; 3E5 0.4 ug/ml; UBE3A 0.00128 ng/ml
[18] = molecular target: recombinant UBE3A protein (Homo sapiens (Human)) (UniProt Q05086); assay: 2-step Simoa; capture GTX; UBE3A 125 ng/ml
[19] = molecular target: recombinant UBE3A protein (Homo sapiens (Human)) (UniProt Q05086); assay: 2-step Simoa; capture GTX; UBE3A 7.81 ng/ml
[20] = molecular target: recombinant UBE3A protein (Homo sapiens (Human)) (UniProt Q05086); assay: 2-step Simoa; capture GTX; UBE3A 0.122 ng/ml

Chain of UniProt Q05086 (Q05086 whole entry): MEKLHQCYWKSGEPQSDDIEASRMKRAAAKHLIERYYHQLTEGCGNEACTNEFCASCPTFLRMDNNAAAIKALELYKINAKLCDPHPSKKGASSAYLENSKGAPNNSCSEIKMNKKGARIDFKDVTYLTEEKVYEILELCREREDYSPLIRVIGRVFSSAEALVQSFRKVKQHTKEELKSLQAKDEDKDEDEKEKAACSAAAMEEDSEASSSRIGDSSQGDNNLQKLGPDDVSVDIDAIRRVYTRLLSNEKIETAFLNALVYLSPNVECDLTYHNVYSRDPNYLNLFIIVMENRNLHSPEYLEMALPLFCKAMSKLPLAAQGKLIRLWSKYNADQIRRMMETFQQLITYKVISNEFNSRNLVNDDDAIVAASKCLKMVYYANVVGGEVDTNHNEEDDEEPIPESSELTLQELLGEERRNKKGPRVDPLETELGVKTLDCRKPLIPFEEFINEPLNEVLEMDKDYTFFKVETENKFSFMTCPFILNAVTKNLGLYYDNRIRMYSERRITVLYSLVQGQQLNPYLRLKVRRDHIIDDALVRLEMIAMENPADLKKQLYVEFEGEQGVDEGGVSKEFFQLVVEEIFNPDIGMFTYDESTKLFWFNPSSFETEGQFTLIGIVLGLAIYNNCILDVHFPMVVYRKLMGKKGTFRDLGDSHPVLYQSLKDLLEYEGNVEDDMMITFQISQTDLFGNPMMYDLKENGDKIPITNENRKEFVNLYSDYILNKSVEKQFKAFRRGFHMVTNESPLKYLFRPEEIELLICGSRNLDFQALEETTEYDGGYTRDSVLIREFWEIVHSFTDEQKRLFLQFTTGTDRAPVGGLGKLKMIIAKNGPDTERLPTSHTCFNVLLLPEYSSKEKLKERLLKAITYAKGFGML

- AEB1 [1]: 0.907
- AEB2 [1]: 0.938
- AEB3 [1]: 0.927
- Average AEB [1]: 0.924
- Signal to Background [1]: 69.7
- AEB1 [2]: 0.271
- AEB2 [2]: 0.285
- AEB3 [2]: 0.279
- Average AEB [2]: 0.278
- Signal to Background [2]: 21
- AEB1 [3]: 0.0091
- AEB2 [3]: 0.0117
- AEB3 [3]: 0.0116
- Average AEB [3]: 0.0108
- Signal to Background [3]: 2.47
- AEB1 [4]: 0.0199
- AEB2 [4]: 0.0201
- AEB3 [4]: 0.0192
- Average AEB [4]: 0.0197
- Signal to Background [4]: 2.35
- AEB1 [5]: 2.3
- AEB2 [5]: 2.58
- AEB3 [5]: 2.4
- Average AEB [5]: 2.43
- Signal to Background [5]: 38.8
- AEB1 [6]: 0.257
- AEB2 [6]: 0.27
- AEB3 [6]: 0.245
- Average AEB [6]: 0.257
- Signal to Background [6]: 13.3
- AEB1 [7]: 0.0351
- AEB2 [7]: 0.04
- AEB3 [7]: 0.0401
- Average AEB [7]: 0.0384
- Signal to Background [7]: 1.99
- AEB1 [8]: 9.97
- AEB2 [8]: 10.3
- Ave AEB [8]: 10.1
- Signal to Background [8]: 1240
- AEB1 [9]: 0.0916
- AEB2 [9]: 0.0961
- Ave AEB [9]: 0.0939
- Signal to Background [9]: 11.5
- AEB1 [10]: 0.0115
- AEB2 [10]: 0.0095
- Ave AEB [10]: 0.0105
- Signal to Background [10]: 6.15
- AEB1 [11]: 3.37
- AEB2 [11]: 3.48
- Average AEB [11]: 3.42
- Signal to Background [11]: 597
- AEB1 [12]: 0.167
- AEB2 [12]: 0.166
- Average AEB [12]: 0.166
- Signal to Background [12]: 29
- AEB1 [13]: 0.0751
- AEB2 [13]: 0.0703
- Average AEB [13]: 0.0727
- Signal to Background [13]: 7.51
- AEB1 [14]: 3.57
- AEB2 [14]: 3.21
- Average AEB [14]: 3.39
- Signal to Background [14]: 592
- AEB1 [15]: 0.0065
- AEB2 [15]: 0.0083
- Average AEB [15]: 0.0074
- Signal to Background [15]: 1.29
- AEB1 [16]: 0.0108
- AEB2 [16]: 0.0159
- Average AEB [16]: 0.0133
- Signal to Background [16]: 2.33
- AEB1 [17]: 0.0195
- AEB2 [17]: 0.0213
- Average AEB [17]: 0.0204
- Signal to Background [17]: 1.04
Substance: anti-UBE3A antibody 3E5 (SAB1404508-100 ug, Millipore-Sigma)

- AEB1 [18]: 0.263
- AEB2 [18]: 0.241
- Ave AEB [18]: 0.252
- Signal to Background [18]: 77.1
- AEB1 [19]: 0.058
- AEB2 [19]: 0.0481
- Ave AEB [19]: 0.053
- Signal to Background [19]: 16.2
- AEB1 [20]: 0.004
- AEB2 [20]: 0.0037
- Ave AEB [20]: 0.0039
- Signal to Background [20]: 1.18
Substance: NB500-240 (Novus) (antibody)
